# Test system: Escherichia coli TOP10
# Assay: shrunken log2 fold change of peptide-encoding DNA abundance (4.5 h post-induction vs induction); higher = less antimicrobial activity (less host growth inhibition)
# Settings: time post-induction: 4.5 h; library: site-saturation at positions 5, 18, 19, 20
# 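Note: peptides expressed intracellularly from a pBAD plasmid library in pooled LB shake-flask culture, induced with 0.3% L-arabinose, DNA abundance read by NGS, three biological replicates, DESeq2 with apeglm shrinkage.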
row,Sequence,shrunken log2 fold change
1,RRIRDRPPRLPRPRPRPRKSPRP,-0.0168
2,RRIRMRPPRLPRPRPRPGQWPRP,0.204
3,RRIRGRPPRLPRPRPRPCCCPRP,0.946
4,RRIRWRPPRLPRPRPRPLLVPRP,0.172
5,RRIRCRPPRLPRPRPRPWAGPRP,0.124
6,RRIRSRPPRLPRPRPRPMLEPRP,-0.0898
7,RRIRWRPPRLPRPRPRPSMRPRP,0.707
8,RRIRKRPPRLPRPRPRPCGEPRP,0.166
9,RRIRGRPPRLPRPRPRPYKGPRP,-0.236
10,RRIRWRPPRLPRPRPRPRFSPRP,0.0681
11,RRIRMRPPRLPRPRPRPKPDPRP,1.13
12,RRIRSRPPRLPRPRPRPTRKPRP,0.138
13,RRIRDRPPRLPRPRPRPNPGPRP,-0.117
14,RRIRWRPPRLPRPRPRPNNLPRP,-0.513
15,RRIRNRPPRLPRPRPRPQLPPRP,-0.352
16,RRIRDRPPRLPRPRPRPKCVPRP,0.104
17,RRIRSRPPRLPRPRPRPHLMPRP,-0.0307
18,RRIRRRPPRLPRPRPRPRACPRP,0.352
19,RRIRFRPPRLPRPRPRPVVGPRP,0.362
20,RRIRGRPPRLPRPRPRPVMLPRP,0.317
21,RRIRKRPPRLPRPRPRPRLRPRP,0.485
22,RRIRLRPPRLPRPRPRPCHCPRP,-0.0469

row,Sequence,shrunken log2 fold change
1,RRIRNRPPRLPRPRPRPSYQPRP,-0.75
2,RRIRARPPRLPRPRPRPPCGPRP,0.443
3,RRIRQRPPRLPRPRPRPKGQPRP,-0.0264
4,RRIRPRPPRLPRPRPRPDSTPRP,-0.679
5,RRIRMRPPRLPRPRPRPDRLPRP,0.55
6,RRIRRRPPRLPRPRPRPRYVPRP,0.147
7,RRIRFRPPRLPRPRPRPGHRPRP,0.0983
8,RRIRFRPPRLPRPRPRPDPCPRP,-0.191
9,RRIRPRPPRLPRPRPRPSCDPRP,-0.273
10,RRIRQRPPRLPRPRPRPFQIPRP,0.0399
11,RRIRYRPPRLPRPRPRPDMLPRP,-0.0808
12,RRIRSRPPRLPRPRPRPGIEPRP,0.158
13,RRIRNRPPRLPRPRPRPDFKPRP,-0.0167
14,RRIRVRPPRLPRPRPRPNKFPRP,-0.255
15,RRIRRRPPRLPRPRPRPKFEPRP,0.0131
16,RRIRQRPPRLPRPRPRPDLTPRP,0.00424
17,RRIRVRPPRLPRPRPRPCCPPRP,-0.25
18,RRIRMRPPRLPRPRPRPEQYPRP,0.282
19,RRIRWRPPRLPRPRPRPVDYPRP,0.0136
20,RRIRFRPPRLPRPRPRPNAMPRP,-0.191
21,RRIRFRPPRLPRPRPRPVDGPRP,0.148
22,RRIRMRPPRLPRPRPRPSWRPRP,0.194

row,Sequence,shrunken log2 fold change
1,RRIRTRPPRLPRPRPRPFQHPRP,-0.214
2,RRIRWRPPRLPRPRPRPFMHPRP,-0.153
3,RRIRARPPRLPRPRPRPRTGPRP,0.387
4,RRIRVRPPRLPRPRPRPCGAPRP,0.279
5,RRIRKRPPRLPRPRPRPMQIPRP,-0.0337
6,RRIRSRPPRLPRPRPRPGDNPRP,0.0473
7,RRIRRRPPRLPRPRPRPRLAPRP,0.62
8,RRIRNRPPRLPRPRPRPHWNPRP,-1.01
9,RRIRIRPPRLPRPRPRPRGFPRP,0.199
10,RRIRYRPPRLPRPRPRPRIYPRP,-0.569
11,RRIRPRPPRLPRPRPRPFECPRP,-0.242
12,RRIRRRPPRLPRPRPRPRKRPRP,0.859
13,RRIRFRPPRLPRPRPRPGMVPRP,-0.0783
14,RRIRYRPPRLPRPRPRPNRWPRP,0.135
15,RRIRKRPPRLPRPRPRPVDWPRP,0.852
16,RRIRDRPPRLPRPRPRPRIMPRP,0.015
17,RRIRWRPPRLPRPRPRPCFFPRP,0.0878
18,RRIRHRPPRLPRPRPRPDQYPRP,0.0188
19,RRIRIRPPRLPRPRPRPTAYPRP,-0.425
20,RRIRARPPRLPRPRPRPGMGPRP,0.639
21,RRIRSRPPRLPRPRPRPYRGPRP,-0.131
22,RRIRERPPRLPRPRPRPFDQPRP,-0.0377

row,Sequence,shrunken log2 fold change
1,RRIRPRPPRLPRPRPRPKYPPRP,-0.672
2,RRIRSRPPRLPRPRPRPKSWPRP,0.392
3,RRIRYRPPRLPRPRPRPTDGPRP,-0.0848
4,RRIRHRPPRLPRPRPRPPWFPRP,-0.27
5,RRIRRRPPRLPRPRPRPMHGPRP,0.144
6,RRIRLRPPRLPRPRPRPQECPRP,-0.00874
7,RRIRGRPPRLPRPRPRPQEAPRP,0.492
8,RRIRERPPRLPRPRPRPLSYPRP,-0.193
9,RRIRDRPPRLPRPRPRPCPCPRP,-0.478
10,RRIRWRPPRLPRPRPRPPCGPRP,0.255
11,RRIRERPPRLPRPRPRPPMMPRP,-0.0743
12,RRIRCRPPRLPRPRPRPTVLPRP,-0.174
13,RRIRNRPPRLPRPRPRPHCTPRP,-0.0475
14,RRIRHRPPRLPRPRPRPKHEPRP,-0.156
15,RRIRVRPPRLPRPRPRPFWIPRP,-0.182
16,RRIRDRPPRLPRPRPRPTHPPRP,0.263
17,RRIRDRPPRLPRPRPRPMGLPRP,-0.00663
18,RRIRGRPPRLPRPRPRPKYAPRP,0.501
19,RRIRGRPPRLPRPRPRPMLWPRP,0.737
20,RRIRWRPPRLPRPRPRPYTCPRP,-1.7
21,RRIRCRPPRLPRPRPRPPMGPRP,0.155
22,RRIRCRPPRLPRPRPRPSMPPRP,-0.558

row,Sequence,shrunken log2 fold change
1,RRIRLRPPRLPRPRPRPPQWPRP,0.322
2,RRIRGRPPRLPRPRPRPTHCPRP,0.433
3,RRIRIRPPRLPRPRPRPHFPPRP,0.00276
4,RRIRNRPPRLPRPRPRPCSGPRP,-0.242
5,RRIRPRPPRLPRPRPRPTHDPRP,0.258
6,RRIRDRPPRLPRPRPRPHNPPRP,-0.231
7,RRIRVRPPRLPRPRPRPGRTPRP,0.117
8,RRIRQRPPRLPRPRPRPDYDPRP,0.003
9,RRIRMRPPRLPRPRPRPESKPRP,2.93
10,RRIRERPPRLPRPRPRPMIKPRP,-1.07
11,RRIRARPPRLPRPRPRPWQAPRP,-0.0548
12,RRIRLRPPRLPRPRPRPTHNPRP,-0.0209
13,RRIRWRPPRLPRPRPRPNKDPRP,-0.393
14,RRIRQRPPRLPRPRPRPSMRPRP,0.0637
15,RRIRGRPPRLPRPRPRPGTKPRP,0.652
16,RRIRYRPPRLPRPRPRPVSVPRP,-0.0879
17,RRIRVRPPRLPRPRPRPVVCPRP,0.251
18,RRIRFRPPRLPRPRPRPMKHPRP,-0.149
19,RRIRLRPPRLPRPRPRPWGNPRP,-0.106
20,RRIRKRPPRLPRPRPRPRKCPRP,0.0121
21,RRIRNRPPRLPRPRPRPVSDPRP,-0.192
